The supplement of paper PMC9112550, “Optimization of the antimicrobial peptide Bac7 by deep mutational scanning” (BMC Biology, 2022)

Tested on: Escherichia coli TOP10
Experiment: shrunken log2 fold change of peptide-encoding DNA abundance (4.5 h post-induction vs induction); higher = less antimicrobial activity (less host growth inhibition)
Conditions: time post-induction: 4.5 h; library: site-saturation at positions 5, 18, 19, 20
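Note: peptides expressed intracellularly from a pBAD plasmid library in pooled LB shake-flask culture, induced with 0.3% L-arabinose, DNA abundance read by NGS, three biological replicates, DESeq2 with apeglm shrinkage.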

Row | Sequence | shrunken log2 fold change
1 | RRIRIRPPRLPRPRPRPFIWPRP | -0.242
2 | RRIRARPPRLPRPRPRPDCHPRP | 1.05
3 | RRIRCRPPRLPRPRPRPHFHPRP | -0.712
4 | RRIRTRPPRLPRPRPRPQQIPRP | -0.0971
5 | RRIRDRPPRLPRPRPRPDHCPRP | -0.00174
6 | RRIRFRPPRLPRPRPRPESNPRP | 0.224
7 | RRIRGRPPRLPRPRPRPSSVPRP | 0.282
8 | RRIRYRPPRLPRPRPRPKDNPRP | -0.75
9 | RRIRVRPPRLPRPRPRPTKHPRP | -0.135
10 | RRIRLRPPRLPRPRPRPPWPPRP | 0.578
11 | RRIRWRPPRLPRPRPRPNIIPRP | -0.486
12 | RRIRFRPPRLPRPRPRPMDGPRP | -0.0177
13 | RRIRCRPPRLPRPRPRPDRGPRP | 0.0229
14 | RRIRKRPPRLPRPRPRPDLAPRP | 0.042
15 | RRIRTRPPRLPRPRPRPFLGPRP | -0.0873
16 | RRIRRRPPRLPRPRPRPGKIPRP | 0.343
17 | RRIRCRPPRLPRPRPRPVDDPRP | 0.157
18 | RRIRHRPPRLPRPRPRPTLPPRP | -0.00384
19 | RRIRPRPPRLPRPRPRPIMDPRP | -0.00126
20 | RRIRMRPPRLPRPRPRPACLPRP | 0.236
21 | RRIRYRPPRLPRPRPRPPDCPRP | -0.00396
22 | RRIRFRPPRLPRPRPRPAWRPRP | 0.765
23 | RRIRHRPPRLPRPRPRPNDEPRP | -0.0904

Row | Sequence | shrunken log2 fold change
24 | RRIRRRPPRLPRPRPRPFEKPRP | -0.0125
25 | RRIRTRPPRLPRPRPRPIFKPRP | -0.128
26 | RRIRKRPPRLPRPRPRPFTVPRP | -0.00947
27 | RRIRYRPPRLPRPRPRPIFVPRP | -0.418
28 | RRIRFRPPRLPRPRPRPKMSPRP | -0.369
29 | RRIRERPPRLPRPRPRPMFWPRP | 0.0831
30 | RRIRYRPPRLPRPRPRPLRQPRP | 0.0273
31 | RRIRMRPPRLPRPRPRPEHKPRP | 2.5
32 | RRIRFRPPRLPRPRPRPMCNPRP | -0.24
33 | RRIRIRPPRLPRPRPRPYQHPRP | -0.136
34 | RRIRNRPPRLPRPRPRPVMMPRP | -0.198
35 | RRIRARPPRLPRPRPRPFCFPRP | 0.42
36 | RRIRARPPRLPRPRPRPPNAPRP | 0.825
37 | RRIRVRPPRLPRPRPRPEGDPRP | 0.297
38 | RRIRDRPPRLPRPRPRPINWPRP | -0.044
39 | RRIRTRPPRLPRPRPRPPQAPRP | 0.121
40 | RRIRRRPPRLPRPRPRPNYFPRP | -0.323
41 | RRIRYRPPRLPRPRPRPRLYPRP | -0.247
42 | RRIRKRPPRLPRPRPRPIWAPRP | -0.0352
43 | RRIRDRPPRLPRPRPRPYSEPRP | -0.0337
44 | RRIRCRPPRLPRPRPRPVVDPRP | -0.15
45 | RRIRWRPPRLPRPRPRPCGCPRP | -0.0615
46 | RRIRCRPPRLPRPRPRPYNVPRP | -0.434

Row | Sequence | shrunken log2 fold change
47 | RRIRLRPPRLPRPRPRPACNPRP | -0.191
48 | RRIRERPPRLPRPRPRPITCPRP | 0.0303
49 | RRIRWRPPRLPRPRPRPIDGPRP | 0.19
50 | RRIRCRPPRLPRPRPRPDFMPRP | -0.163
51 | RRIRDRPPRLPRPRPRPLRNPRP | 0.767
52 | RRIRHRPPRLPRPRPRPHRYPRP | -0.136
53 | RRIRQRPPRLPRPRPRPRGGPRP | 0.484
54 | RRIRHRPPRLPRPRPRPQWAPRP | -0.018
55 | RRIRFRPPRLPRPRPRPHAVPRP | -0.0464
56 | RRIRHRPPRLPRPRPRPQVCPRP | -0.0115
57 | RRIRIRPPRLPRPRPRPDSHPRP | -0.379
58 | RRIRIRPPRLPRPRPRPYCYPRP | -0.0959
59 | RRIRFRPPRLPRPRPRPVWCPRP | -0.158
60 | RRIRPRPPRLPRPRPRPWVNPRP | -0.11
61 | RRIRGRPPRLPRPRPRPVPLPRP | 0.13
62 | RRIRTRPPRLPRPRPRPEMTPRP | 0.0523
63 | RRIRMRPPRLPRPRPRPYPHPRP | 0.00442
64 | RRIRERPPRLPRPRPRPQPGPRP | 0.0699
65 | RRIRDRPPRLPRPRPRPPTIPRP | 0.0394
66 | RRIRGRPPRLPRPRPRPITMPRP | -0.0891
67 | RRIRHRPPRLPRPRPRPSDTPRP | -1.05
68 | RRIRSRPPRLPRPRPRPPYHPRP | -0.584
69 | RRIRQRPPRLPRPRPRPGTGPRP | -0.121

Row | Sequence | shrunken log2 fold change
70 | RRIRDRPPRLPRPRPRPAFAPRP | 0.928
71 | RRIRRRPPRLPRPRPRPNYCPRP | -0.25
72 | RRIRVRPPRLPRPRPRPGHVPRP | 0.0316
73 | RRIRYRPPRLPRPRPRPAVNPRP | 0.063
74 | RRIRLRPPRLPRPRPRPITHPRP | -0.24
75 | RRIRYRPPRLPRPRPRPAPPPRP | 0.417
76 | RRIRIRPPRLPRPRPRPMYLPRP | -0.249
77 | RRIRWRPPRLPRPRPRPCQCPRP | -0.000687
78 | RRIRERPPRLPRPRPRPIHYPRP | -0.0107
79 | RRIRWRPPRLPRPRPRPAIVPRP | 0.144
80 | RRIRCRPPRLPRPRPRPIKFPRP | -0.159
81 | RRIRGRPPRLPRPRPRPICEPRP | 0.396
82 | RRIRYRPPRLPRPRPRPCNMPRP | -0.873
83 | RRIRARPPRLPRPRPRPFDWPRP | 0.608
84 | RRIRRRPPRLPRPRPRPHRMPRP | -0.203
85 | RRIRLRPPRLPRPRPRPMEHPRP | -0.00579
86 | RRIRRRPPRLPRPRPRPDKQPRP | 0.0803
87 | RRIRNRPPRLPRPRPRPGWVPRP | 0.282
88 | RRIRLRPPRLPRPRPRPMCEPRP | -0.0027
89 | RRIRARPPRLPRPRPRPNSAPRP | 0.00853
90 | RRIRERPPRLPRPRPRPTTYPRP | -0.8
91 | RRIRNRPPRLPRPRPRPSASPRP | -0.2
